We go through eight molecules from patent US20230086069A1 (SYSTIMMUNE, published 2023).

The target in assay [1] is T1, His-tagged human CD19 (human, UniProt P15391 20-291, limits assumed).
T1 construct: not shown: His tag
T1 sequence (looked up): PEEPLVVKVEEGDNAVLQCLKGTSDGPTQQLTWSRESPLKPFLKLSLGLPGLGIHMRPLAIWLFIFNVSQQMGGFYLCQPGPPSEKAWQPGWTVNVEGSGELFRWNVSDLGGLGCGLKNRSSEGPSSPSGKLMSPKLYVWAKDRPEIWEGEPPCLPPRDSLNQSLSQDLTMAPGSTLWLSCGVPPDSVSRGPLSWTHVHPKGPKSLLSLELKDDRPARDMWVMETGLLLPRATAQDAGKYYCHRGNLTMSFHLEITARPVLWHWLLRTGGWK
The assay is described as follows: BLI (Octet), scFv-monoFc on AHC sensor, His-tagged human CD19 as analyte, global 1:1 fit. The text has this:
To further screen and compare all humanized peptides, the DNA sequences encoding humanized CD19 binding variants (H1, H2, H3, H4, H5 and H6) were configured to a scFv-monoFc format and cloned (Dimitrov et al. 2012.) (SEQ ID NO. 55,57,59,61,63,65). […] They were given names as SI-63SF1(H1), SI-63SF2(H2), SI-63SF4(H3), SI-63SF5(H4), SI-63SF6(H5), and SI-63SF7(H6). Following the expression and purification processes, all six proteins were characterized for their physical characters, including yields (titer), purity (% HMW and aSEC), binding affinity (KD, Kon, and Kdis) to human CD19, and thermal stability. For Octet assay, the scFv-monoFc fusion proteins were loaded via AHC sensors at 10 ug/ml and bound to a serial dilution of His-tagged human CD19 (1:2.5 dilutions starting from the highest concentration of 200 nM), and the resulting global fit to a 1:1 binding model. For the DLS analysis, the temperature was ramped from 25° C. to 75° C. at 0.5° C./min while the radius of the scFv-monoFc fusion proteins (at 1 mg/ml) was monitored by a Wyatt DynaPro Plate Reader III.
(BLI is a label-free optical method that tracks binding on a fibre tip over time.)

Assay [2] deals with T1, His-tagged human CD19. Briefly: BLI (Octet), scFv-His coupled covalently to AR2G sensor, His-tagged human CD19 as analyte. The procedure: To assess the binding affinity of SI-63R1, Octet binding assay was used. The SI-63R1 protein was loaded via covalent coupling onto AR2G sensors at 10 ug/ml and bound to a serial dilution of His-tagged human CD19 (1:2.5 dilutions from the highest concentration of 200 nM).

Assay [3] deals with T2, human CD19 protein (R&D Biosystems Cat #9269-CD-050) (human, UniProt P15391 20-291).
T2 sequence (looked up): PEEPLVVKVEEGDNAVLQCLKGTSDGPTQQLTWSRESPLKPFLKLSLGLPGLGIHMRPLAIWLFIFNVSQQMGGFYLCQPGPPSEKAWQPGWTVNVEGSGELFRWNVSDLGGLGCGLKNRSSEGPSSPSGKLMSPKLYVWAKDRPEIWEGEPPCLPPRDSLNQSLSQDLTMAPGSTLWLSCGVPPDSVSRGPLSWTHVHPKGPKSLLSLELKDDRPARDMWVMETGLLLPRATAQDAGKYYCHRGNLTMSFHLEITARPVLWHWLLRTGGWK
The assay is described as follows: BLI (Octet); human CD19. The procedure: (§1) The purified SI-63C1, SI-63C2, and SI-34C1 antibodies were tested for their binding affinity using biolayer interferometry (ForteBio OctetRED 384). The antibodies were bound to anti-human Fc biosensors, and human CD19 protein (R&D Biosystems Cat #9269-CD-050) was used as the analyte in a 4-point series of 2-fold dilutions with the highest concentration starting at 200 nM.

Assay [4] addresses T2, human CD19 protein (R&D Biosystems Cat …). The assay is described as follows: BLI (Octet), antibody on anti-human Fc biosensor, human CD19 as analyte. As to the method: as §1

B1: SI-63SF4 (H3 scFv-monoFc fusion protein) (Fc fusion)
chain: ENVLTQSPASLSASPGERVTITCSASSSVSYMHWYQQKPGQAPKLWIYDTSKLASGVPSRFSGSGSGNDHTLTISSMEPEDFATYYCFQGSVYPFTFGQGTKLTVLGGGGSGGGGSGGGGSGGGGSQVTLKESGPGLVQPGQTLRLTCAFSGFSLSTSGMGVGWIRQPPGKGLEWLAHIWWDDDKRYNPALKSRLTISKDTSKNQVYLQMNSLDAEDTAVYYCARMELWSYYFDYWGQGTLVTVSSGGSSGSGSGSTGLVPRGSTSSSGTGTSAGTPVAGPSVFLFPPKPKDTLMISRTPEVTCVVVDVSHEDPEVKFNWYVDGVEVHNAKTKPREEQYASTYRVVSVLTVLHQDWLNGKEYKCKVSNKALPAPIEKTISKAKGQPREPQVYTLPPSRDELTKNQVSLRCHVKGFYPSDIAVEWESNGQPENNYKTTKPVLDSDGSFFLYSTLTVDKSRWQQGNVFSCSVLHEALHNHYTQKSLSLSPGKGSGLNDIFEAQKIEWHE
notes: The entry is the whole scFv-monoFc chain; also called Humanized version 3 ScFv monoFc
What is called Kd is a measure of binding affinity in units of concentration. A higher Kd goes with lower affinity. Usually koff stands for the rate constant with which the complex falls apart. Low values mean a long-lived complex, high ones a short-lived complex. In the assay with His-tagged human CD19 [1], B1 showed a Kd of 4.18 nM and a koff of 0.00191 s⁻¹.

B2: SI-63SF5 (H4 scFv-monoFc fusion protein) (Fc fusion)
chain: ENVLTQSPASLSASPGERVTITCSASSSVSYMHWYQQKPGQAPKLWIYDTSKLASGVPSRFSGSGSGNDHTLTISSMEPEDFATYYCFQGSVYPFTFGQGTKVTVLGGGGSGGGGSGGGGSGGGGSQVTLKESGPGLVQPGQTLRLTCAFSGFSLSTSGMGVGWIRQPPGKGLEWLAHIWWDDDKRYNPALKSRLTISKDTSKNQVYLQMNSLDAEDTAVYYCARMELWSYYFDYWGQGTLVTVSSGGSSGSGSGSTGLVPRGSTSSSGTGTSAGTPVAGPSVFLFPPKPKDTLMISRTPEVTCVVVDVSHEDPEVKFNWYVDGVEVHNAKTKPREEQYASTYRVVSVLTVLHQDWLNGKEYKCKVSNKALPAPIEKTISKAKGQPREPQVYTLPPSRDELTKNQVSLRCHVKGFYPSDIAVEWESNGQPENNYKTTKPVLDSDGSFFLYSTLTVDKSRWQQGNVFSCSVLHEALHNHYTQKSLSLSPGKGSGLNDIFEAQKIEWHE
notes: The entry is the whole scFv-monoFc chain; also called Humanized version 4 ScFv monoFc
B2: in the assay with His-tagged human CD19 [1], the Kd turned out to be 5.02 nM and the off-rate constant (koff) came to 0.00187 s⁻¹.

B3: SI-63SF2 (H2 scFv-monoFc fusion protein) (Fc fusion)
chain: ENVLTQSPASLSASPGERVTITCSASSSVSYMHWYQQKPGQAPKLWIYDTSKLASGVPSRFSGSGSGNDHTLTISSMEPEDFATYYCFQGSVYPFTFGQGTKITILGGGGSGGGGSGGGGSGGGGSQVTLKESGPGLVQPGQTLRLTCAFSGFSLSTSGMGVGWIRQPPGKGLEWLAHIWWDDDKRYNPALKSRLTISKDTSKNQVYLQMNSLDAEDTAVYYCARMELWSYYFDYWGQGTLVTVSSGGSSGSGSGSTGLVPRGSTSSSGTGTSAGTPVAGPSVFLFPPKPKDTLMISRTPEVTCVVVDVSHEDPEVKFNWYVDGVEVHNAKTKPREEQYASTYRVVSVLTVLHQDWLNGKEYKCKVSNKALPAPIEKTISKAKGQPREPQVYTLPPSRDELTKNQVSLRCHVKGFYPSDIAVEWESNGQPENNYKTTKPVLDSDGSFFLYSTLTVDKSRWQQGNVFSCSVLHEALHNHYTQKSLSLSPGKGSGLNDIFEAQKIEWHE
notes: The entry is the whole scFv-monoFc chain; also called Humanized version 2 ScFv monoFc
On to B3, for which, in the assay with His-tagged human CD19 [1], binding was put at a Kd of 4.22 nM and the koff stood at 0.00181 s⁻¹.

B4: SI-63SF1 (H1 scFv-monoFc fusion protein) (Fc fusion)
chain: ENVLTQSPASLSASPGERVTITCSASSSVSYMHWYQQKPGQAPKLWIYDTSKLASGVPSRFSGSGSGNDHTLTISSMEPEDFATYYCFQGSVYPFTFGQGTKLEIKGGGGSGGGGSGGGGSGGGGSQVTLKESGPGLVQPGQTLRLTCAFSGFSLSTSGMGVGWIRQPPGKGLEWLAHIWWDDDKRYNPALKSRLTISKDTSKNQVYLQMNSLDAEDTAVYYCARMELWSYYFDYWGQGTLVTVSSGGSSGSGSGSTGLVPRGSTSSSGTGTSAGTPVAGPSVFLFPPKPKDTLMISRTPEVTCVVVDVSHEDPEVKFNWYVDGVEVHNAKTKPREEQYASTYRVVSVLTVLHQDWLNGKEYKCKVSNKALPAPIEKTISKAKGQPREPQVYTLPPSRDELTKNQVSLRCHVKGFYPSDIAVEWESNGQPENNYKTTKPVLDSDGSFFLYSTLTVDKSRWQQGNVFSCSVLHEALHNHYTQKSLSLSPGKGSGLNDIFEAQKIEWHE
notes: The entry is the whole scFv-monoFc chain; also called Humanized version 1 ScFv monoFc
Turning to B4, in the assay with His-tagged human CD19 [1], the affinity, expressed as Kd, was 6.89 nM and the off-rate constant (koff) stood at 0.000184 s⁻¹.

B5: SI-63R1 (humanized anti-CD19 H1 scFv-His-tagged protein) (scFv)
scFv: ENVLTQSPASLSASPGERVTITCSASSSVSYMHWYQQKPGQAPKLWIYDTSKLASGVPSRFSGSGSGNDHTLTISSMEPEDFATYYCFQGSVYPFTFGQGTKLEIKGGGGSGGGGSGGGGSGGGGSQVTLKESGPGLVQPGQTLRLTCAFSGFSLSTSGMGVGWIRQPPGKGLEWLAHIWWDDDKRYNPALKSRLTISKDTSKNQVYLQMNSLDAEDTAVYYCARMELWSYYFDYWGQGTLVTVSSGSHHHHHH
notes: also called SI-63R1(H1)
B5: in the assay with His-tagged human CD19 [2], the dissociation constant Kd is 1.83 nM and the koff was 9.15e-05 s⁻¹.

B6: SI-63SF6 (H5 scFv-monoFc fusion protein) (Fc fusion)
chain: EIVMTQSPSTLSASVGDRVIITCSASSSVSYMHWYQQKPGKAPKLLIYDTSKLASGVPSRFSGSGSGAEFTLTISSLQPDDFATYYCFQGSVYPFTFGQGTKLTVLGGGGSGGGGSGGGGSGGGGSEVQLVESGGGLVQPGGSLRLSCVFSGFSLSTSGMGVGWVRQAPGKGLEWVGHIWWDDDKRYNPALKSRFTISRDTSKNTVYLQMNSLRAEDTAVYYCARMELWSYYFDYWGQGTLVTVSSGSSGSGSGSTGLVPRGSTSSSGTGTSAGTPVAGPSVFLFPPKPKDTLMISRTPEVTCVVVDVSHEDPEVKFNWYVDGVEVHNAKTKPREEQYASTYRVVSVLTVLHQDWLNGKEYKCKVSNKALPAPIEKTISKAKGQPREPQVYTLPPSRDELTKNQVSLRCHVKGFYPSDIAVEWESNGQPENNYKTTKPVLDSDGSFFLYSTLTVDKSRWQQGNVFSCSVLHEALHNHYTQKSLSLSPGKGSGLNDIFEAQKIEWHE
notes: The entry is the whole scFv-monoFc chain; also called Humanized version 5 ScFv monoFc
As a reminder, the kon is the rate constant with which the complex forms. A high value points to faster complex formation. In the assay with His-tagged human CD19 [1], B6 yielded an equilibrium dissociation constant (Kd) of 5.68 nM, a dissociation rate constant (koff) of 0.000339 s⁻¹ and a kon of 59700 M⁻¹ s⁻¹.

B7: SI-63SF7 (H6 scFv-monoFc fusion protein) (Fc fusion)
chain: EIVMTQSPSTLSASVGDRVIITCSASSSVSYMHWYQQKPGKAPKLLIYDTSKLASGVPSRFSGSGSGAEFTLTISSLQPDDFATYYCFQGSVYPFTFGQGTKLTVLGGGGSGGGGSGGGGSGGGGSEVQLVESGGGLVQPGGSLRLSCSFSGFSLSTSGMGVGWVRQAPGKGLEWVGHIWWDDDKRYNPALKSRFTISRDTSKNTVYLQMNSLRAEDTAVYYCARMELWSYYFDYWGQGTLVTVSSGSSGSGSGSTGLVPRGSTSSSGTGTSAGTPVAGPSVFLFPPKPKDTLMISRTPEVTCVVVDVSHEDPEVKFNWYVDGVEVHNAKTKPREEQYASTYRVVSVLTVLHQDWLNGKEYKCKVSNKALPAPIEKTISKAKGQPREPQVYTLPPSRDELTKNQVSLRCHVKGFYPSDIAVEWESNGQPENNYKTTKPVLDSDGSFFLYSTLTVDKSRWQQGNVFSCSVLHEALHNHYTQKSLSLSPGKGSGLNDIFEAQKIEWHE
notes: The entry is the whole scFv-monoFc chain; also called Humanized version 6 ScFv mono Fc
Take B7: in the assay with His-tagged human CD19 [1], the Kd was determined as 5.37 nM, the koff amounted to 0.000377 s⁻¹ and the on-rate constant (kon) came to 70200 M⁻¹ s⁻¹.

B8: SI-34C1 (recombinant mAb with 21D4 human anti-CD19 variable sequence) (antibody, human IgG1, kappa, V domains shown)
VH: EVQLVQSGAEVKKPGESLKISCKGSGYSFSSSWIGWVRQAPGKGLEWMGIIYPDDSDTRYSPSFQGQVTISADKSIRTAYLQWSSLKASDTAMYYCARHVTMIWGVIIDFWGQGTLVTVSS
VL: AIQLTQSPSSLSASVGDRVTITCRASQGISSALAWYQQKPGKAPKLLIYDASSLESGVPSRFSGSGSGTDFTLTISSLQPEDFATYYCQQFNSYPFTFGPGTKVDIKR
notes: also called human anti-CD19 antibody (21D4)
Molecule B8 registered a dissociation constant Kd in assay [3] of 2.1 nM. For the same molecule, in assay [4], binding was characterised by a dissociation constant (Kd) of 1.56 nM, the koff was determined as 0.000101 s⁻¹ and the association rate constant (kon) worked out at 64400 M⁻¹ s⁻¹.
